Experimental data published in patent US20050037449.

Legend:
[1] = target: human BMAL1 expressed in E. coli as an N-terminal GST fusion protein [GST: P08515]
[2] = target: T1, c-Jun (1-79) expressed in E. coli as an N-terminal GST fusion protein, P05412
T1 chain: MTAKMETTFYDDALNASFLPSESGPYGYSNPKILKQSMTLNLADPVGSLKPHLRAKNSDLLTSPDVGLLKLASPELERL

[3] = target: glutathion S-transferase (GST) [GST: P08515]

B1: human JNK1 (Upstate Biotechnology) (protein)
chain: MSRSKRDNNFYSVEIGDSTFTVLKRYQNLKPIGSGAQGIVCAAYDAILERNVAIKKLSRPFQNQTHAKRAYRELVLMKCVNHKNIIGLLNVFTPQKSLEEFQDVYIVMELMDANLCQVIQMELDHERMSYLLYQMLCGIKHLHSAGIIHRDLKPSNIVVKSDCTLKILDFGLARTAGTSFMMTPYVVTRYYRAPEVILGMGYKENVDLWSVGCIMGEMVCHKILFPGRDYIDQWNKVIEQLGTPCPEFMKKLQPTVRTYVENRPKYAGYSFEKLFPDVLFPADSEHNKLKASQARDLLSKMLVIDASKRISVDEALQHPYINVWYDPSEAEAPPPKIPDKQLDEREHTIEEWKELIYKEVMDLEERTKNGVIRGQPSPLAQVQQ
- in vitro phosphorylation, JNK1 added instead of JNK3 [1]: substantially not phosphorylated by any of JNK1 and JNK2 (which are members of the JNK family), and ERK2

B2: mouse ERK2 (New England Biolabs) (protein)
chain: MAAAAAAGPEMVRGQVFDVGPRYTNLSYIGEGAYGMVCSAYDNLNKVRVAIKKISPFEHQTYCQRTLREIKILLRFRHENIIGINDIIRAPTIEQMKDVYIVQDLMETDLYKLLKTQHLSNDHICYFLYQILRGLKYIHSANVLHRDLKPSNLLLNTTCDLKICDFGLARVADPDHDHTGFLTEYVATRWYRAPEIMLNSKGYTKSIDIWSVGCILAEMLSNRPIFPGKHYLDQLNHILGILGSPSQEDLNCIINLKARNYLLSLPHKNKVPWNRLFPNADSKALDLLDKMLTFNPHKRIEVEQALAHPYLEQYYDPSDEPIAEAPFKFDMELDDLPKEKLKELIFEETARFQPGYRS
- in vitro phosphorylation, ERK2 added instead of JNK3 [1]: substantially not phosphorylated by any of JNK1 and JNK2 (which are members of the JNK family), and ERK2

B3: active form of human JNK3 (JNK3 α1) expressed as an N-terminal His-tagged protein (protein)
chain: MSLHFLYYCSEPTLDVKIAFCQGFDKQVDVSYIAKHYNMSKSKVDNQFYSVEVGDSTFTVLKRYQNLKPIGSGAQGIVCAAYDAVLDRNVAIKKLSRPFQNQTHAKRAYRELVLMKCVNHKNIISLLNVFTPQKTLEEFQDVYLVMELMDANLCQVIQMELDHERMSYLLYQMLCGIKHLHSAGIIHRDLKPSNIVVKSDCTLKILDFGLARTAGTSFMMTPYVVTRYYRAPEVILGMGYKENVDIWSVGCIMGEMVRHKILFPGRDYIDQWNKVIEQLGTPCPEFMKKLQPTVRNYVENRPKYAGLTFPKLFPDSLFPADSEHNKLKASQARDLLSKMLVIDPAKRISVDDALQHPYINVWYDPAEVEAPPPQIYDKQLDEREHTIEEWKELIYKEVMNSEEKTKNGVVKGQPSPSAQVQQ
- in vitro phosphorylation ([γ-32P]ATP kinase assay, SDS-PAGE, autoradiography) [2]: JNK3 did phosphorylate the GST-c-Jun (1-79) used as a positive control
- in vitro phosphorylation ([γ-32P]ATP kinase assay, SDS-PAGE, autoradiography) [1]: The phosphorylation of GST-BMAL1 was observed in this experimental system
- in vitro phosphorylation with 0 ng, 14 ng, 28 ng and 70 ng of active JNK3 [1]: GST-BMAL1 was phosphorylated in a JNK3 dose-dependent manner
- in vitro phosphorylation ([γ-32P]ATP kinase assay, SDS-PAGE, autoradiography) [3]: did not phosphorylate the GST

B4: human JNK2 (Upstate Biotechnology) (protein)
chain: MSDSKCDSQFYSVQVADSTFTVLKRYQQLKPIGSGAQGIVCAAFDTVLGINVAVKKLSRPFQNQTHAKRAYRELVLLKCVNHKNIISLLNVFTPQKTLEEFQDVYLVMELMDANLCQVIHMELDHERMSYLLYQMLCGIKHLHSAGIIHRDLKPSNIVVKSDCTLKILDFGLARTACTNFMMTPYVVTRYYRAPEVILGMGYKENVDIWSVGCIMGELVKGCVIFQGTDHIDQWNKVIEQLGTPSAEFMKKLQPTVRNYVENRPKYPGIKFEELFPDWIFPSESERDKIKTSQARDLLSKMLVIDPDKRISVDEALRHPYITVWYDPAEAEAPPPQIYDAQLEEREHAIEEWKELIYKEVMDWEERSKNGVVKDQPSDAAVSSNATPSQSSSINDISSMSTEQTLASDTDSSLDASTGPLEGCR
- in vitro phosphorylation, JNK2 added instead of JNK3 [1]: substantially not phosphorylated by any of JNK1 and JNK2 (which are members of the JNK family), and ERK2
